Laboratory results reported in patent US20130011406A1 (KOLLTAN PHARMACEUTICALS, published 2013).

Experiments:
[1] = biological target: T1, recombinant D4 domain polypeptide of human KIT (V308 to K412, with His tag) (human, UniProt P10721 26-412); assay: solid phase ELISA, polypeptide coated on plate
T1 construct: also called D4 domain of human KIT

[2] = biological target: T2, recombinant D5 domain polypeptide of human KIT (N410 to H515, with His tag) (human, UniProt P10721 26-519); assay: solid phase ELISA, polypeptide coated on plate
T2 construct: also called D5 domain of human KIT

[3] = biological target: T3, recombinant KIT D4/D5 polypeptide (D4/D5 region of human KIT, V308 to H515, with 5xHis tag) (human, UniProt P10721 26-519); assay: solid phase ELISA, D4/D5 polypeptide coated on plate
T3 construct: also called recombinant antigen; recombinant IG domain four and five of the extracellular region of KIT
Procedure: (§1) Coating plates with antigen: Recombinant antigen containing the D4/D5 region of the KIT extracellular Ig-like region (see FIG. 2A) were absorbed to 96-well microtiter plates. 10 μg of recombinant antigen (i.e., D4/D5 region of KIT) were diluted into 10 mL of borate buffer, and 100 μL of the antigen solution were added to each well of a 96 well plate. The 96 well plate was covered with a plate sealer, was incubated at 4° C. overnight, and then stored at −80° C. until the day of the assay.
ELISA: The plate with the absorbed antigen was removed from the −80° C. freezer and was allowed to thaw at room temperature. The borate buffer was removed by flicking the plate into the sink and blotting the plate dry. 200 μL of the blocking buffer were added to each well and allowed to incubate at room temperature for one hour. The blocking buffer was removed, again by flicking the plate into the sink. Then, the diluted solution of test antibodies and controls (were added to the plate in a volume of 50 μL and incubated at room temperature for one hour. The antibody solutions were removed, and the plate was washed four times with 300 μL of wash buffer with five minute incubations. After the last wash, the plate was blotted dry. The diluted secondary antibody solution was added to each well in a volume of 100 μL and allowed to incubate for one hour at room temperature. The diluted secondary antibody solution was removed, and the plate was washed four times with 300 μL of wash buffer with five minute incubations. The plate was then blotted dry, and freshly mixed substrate solution was added to each well in a volume of 100 μL and was allowed to incubate at room temperature for 30 minutes. Subsequently, 100 μL of 2NH₂SO₄ were added to each well and immediately read on the plate reader. An irrelevant antibody served as the negative control, and an anti-KIT antibody against the D4 and/or D5 domain of the extracellular region of KIT served as the positive control. OD values for each sample were obtained at a wavelength of 450 nm.

[4] = biological target: T3, recombinant KIT D4/D5 polypeptide …; assay: solid phase ELISA, D4/D5 antigen coated on plate, Fab; concentration at 50% binding
Procedure: as §1
ELISA: The plate with the absorbed antigen was removed from the −80° C. freezer and was allowed to thaw at room temperature. The borate buffer was removed by flicking the plate into the sink and blotting the plate dry. 200 μL of the blocking buffer were added to each well and allowed to incubate at room temperature for one hour. The blocking buffer was removed, again by flicking the plate into the sink. […] Subsequently, 100 μL of 2NH₂SO₄ were added to each well and immediately read on the plate reader. […]

[5] = biological target: T1, recombinant D4 domain polypeptide of …; assay: solid phase ELISA, D4 polypeptide coated on plate
[6] = biological target: T2, recombinant D5 domain polypeptide of …; assay: solid phase ELISA, D5 polypeptide coated on plate
[7] = biological target: T3, recombinant KIT D4/D5 polypeptide …; assay: solid phase ELISA, recombinant D4/D5 region coated on plate, full-length human IgG1
Procedure: Serial antibody dilutions were prepared as follows. A starting antibody concentration of 300 nM (or lower depending on sample) was diluted down 1:3 in dilution buffer. Specifically, 200 μl of the starting concentration (top row of dilution plate) was prepared, and 75 μl was diluted into 150 μl in the row below. The dilution was mixed, and the dilution step was repeated down the plate. From the dilution plate, 100 μl was transferred to the assay plate.
The binding assays were carried out as follows. The plate coated with antigen (i.e., recombinant D4/D5 region of KIT) were removed from the −80° C. freezer and were allowed to warm to room temperature. The borate buffer was removed by flicking the plate into the sink and blotting it dry. 200 μL of the blocking buffer (1% BSA/TBS) was added and incubated at room temperature for one hour. The blocking buffer was then removed by flicking the plate into the sink, and blotting dry. Then, the serially diluted antibodies and controls were added to the plate in a volume of 100 μL, and the plate was sealed and incubated at room temperature for one hour.

[8] = biological target: full-length, wild-type human KIT (human, UniProt P10721 26-976); assay: cell-based or functional assay
Sequence of full-length, wild-type human KIT (P10721 other isoform, or with tags, fused parts or gaps limits assumed): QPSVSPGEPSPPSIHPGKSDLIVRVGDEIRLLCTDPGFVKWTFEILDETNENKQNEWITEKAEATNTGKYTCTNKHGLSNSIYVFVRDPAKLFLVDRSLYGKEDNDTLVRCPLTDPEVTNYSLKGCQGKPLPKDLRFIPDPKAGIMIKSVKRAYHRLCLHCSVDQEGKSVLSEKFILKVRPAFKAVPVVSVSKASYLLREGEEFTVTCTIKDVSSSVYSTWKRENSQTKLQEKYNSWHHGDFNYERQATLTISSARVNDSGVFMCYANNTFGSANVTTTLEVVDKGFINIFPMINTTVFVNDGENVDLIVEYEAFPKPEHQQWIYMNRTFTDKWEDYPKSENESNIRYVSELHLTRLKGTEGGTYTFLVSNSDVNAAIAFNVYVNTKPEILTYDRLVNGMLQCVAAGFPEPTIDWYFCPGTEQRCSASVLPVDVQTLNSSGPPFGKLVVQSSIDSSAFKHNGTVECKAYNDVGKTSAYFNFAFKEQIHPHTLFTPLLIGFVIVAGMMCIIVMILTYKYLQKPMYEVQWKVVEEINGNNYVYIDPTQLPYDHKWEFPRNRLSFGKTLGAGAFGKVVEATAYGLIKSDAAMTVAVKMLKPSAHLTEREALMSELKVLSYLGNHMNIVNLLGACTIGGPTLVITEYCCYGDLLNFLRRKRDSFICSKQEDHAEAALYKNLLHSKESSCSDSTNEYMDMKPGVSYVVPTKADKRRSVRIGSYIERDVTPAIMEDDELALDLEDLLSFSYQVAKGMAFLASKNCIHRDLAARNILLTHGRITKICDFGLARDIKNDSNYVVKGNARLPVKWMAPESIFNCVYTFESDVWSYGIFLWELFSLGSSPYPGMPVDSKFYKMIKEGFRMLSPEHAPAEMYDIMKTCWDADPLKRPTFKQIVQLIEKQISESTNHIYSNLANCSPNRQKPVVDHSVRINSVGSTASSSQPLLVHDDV

T2 sequence (P10721 other isoform, or with tags, fused parts or gaps limits assumed): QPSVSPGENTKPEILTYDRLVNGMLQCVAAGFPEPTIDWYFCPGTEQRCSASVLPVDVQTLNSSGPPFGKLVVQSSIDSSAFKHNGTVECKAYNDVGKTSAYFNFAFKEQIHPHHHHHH
T3 sequence (P10721 other isoform, or with tags, fused parts or gaps limits assumed): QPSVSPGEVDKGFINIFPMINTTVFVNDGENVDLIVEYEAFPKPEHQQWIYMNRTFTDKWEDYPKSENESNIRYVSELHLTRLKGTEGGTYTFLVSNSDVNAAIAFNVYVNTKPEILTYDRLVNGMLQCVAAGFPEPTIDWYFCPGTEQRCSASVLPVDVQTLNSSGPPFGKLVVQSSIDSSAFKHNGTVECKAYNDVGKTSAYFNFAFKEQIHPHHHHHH
T1 sequence (P10721 other isoform, or with tags, fused parts or gaps limits assumed): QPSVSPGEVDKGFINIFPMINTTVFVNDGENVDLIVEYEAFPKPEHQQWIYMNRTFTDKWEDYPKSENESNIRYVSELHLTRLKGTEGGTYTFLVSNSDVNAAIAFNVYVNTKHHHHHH

Binder | binding result [1] | binding result [2] | binding result [3] | binding result [5] | further results
Fab antibody Ab16 (Fab, V domains shown, Fab from a phage library) VH: EVQLLESGGGLVQPGGSLRLSCAASGFTFSQYVMFWVRQAPGKGLEWVSSIYPSGGHTLYADSVKGRFTISRDNSKNTLYLQMNSLRAEDTAVYYCAKHARGYNRGYFDSWGRGTLVTVSS VL: not shown | no binding | no binding | binds | – | –
Fab antibody Ab12 (Fab, V domains shown, Fab from a phage library) VH: EVQLLESGGGLVQPGGSLRLSCAASGFTFSFYKMHWVRQAPGKGLEWVSGIWPSGGYTEYADSVKGRFTISRDNSKNTLYLQMNSLRAEDTAVYYCARSSGYHIDYWGQGTLVTVSS VL: DIQMTQSPGTLSLSPGERATLYCRASQSVKSNYLAWYQQKPGQAPRLLIYGASTRATDIPDRFSGSGSGTDFTLTISRLEPEDFAVYYCQQYGSSLSYTFGQGTKLEIK | – | – | – | – | EC50 [4]: ≤ 300 nM
Fab antibody Ab20 (Fab, V domains shown, Fab from a phage library) VH: EVQLLESGGGLVQPGGSLRLSCAASGFTFSRYGMAWVRQAPGKGLEWVSSIRPSGGYTAYADSVKGRFTISRDNSKNTLYLQMNSLRAEDTAVYYCARLPARFDYYYGLDVWGQGTTVTVSS VL: DIQMTQSPATLSLSPGERATLSCRASQSVNIYLAWYQQRPGQAPRLLIYDASNRAIGVPARFSGTGSGTDFTLTISSLEPEDSAVYYCQQRDSWPPRLSFGGGTKVEIK | – | – | – | binds | –
Fab antibody Ab19 (Fab, V domains shown, Fab from a phage library) VH: EVQLLESGGGLVQPGGSLRLSCAASGFTFSNYQMQWVRQAPGKGLEWVSSIRPSGGSTQYADSVKGRFTISRDNSKNTLYLQMNSLRAEDTAVYYCARGSSHAFDIWGQGTMVTVSS VL: DIQMTQSPGTLSLSPGERATLSCRASQSFRSSYLAWYQQKPGQAPRLLIYDTSTRATGIPDRFSGSGSGTDFTLTISRLEPEDFAVYYCQQYGSSPPMYTFGQGTKLEIK | – | – | – | – | binding result [6]: binds
Fab antibody Ab2 (Fab, V domains shown, Fab from a phage library) VH: EVQLLESGGGLVQPGGSLRLSCAASGFTFSNYKMGWVRQAPGKGLEWVSWIYPSGGGTFQADSVKGRFTISRDNSKNTLYLQMNSLRAEDTAVYYCARVRVGSTGNFDYWGQGTLVTVSS VL: DIQMTQSPATLSLSPGERATLYCRASQSVSNYVAWYQQRPGQAPRLLMYDTSKRATGIPARFSGSGSGTDFTLTISSLEPEDFAVYYCQQRSYWFAFGGGTKVEIK | – | – | – | binds | –
Fab antibody Ab13 (Fab, V domains shown, Fab from a phage library) VH: EVQLLESGGGLVQPGGSLRLSCAASGFTFSNYTMHWVRQAPGKGLEWVSVIYPSGGMTKYADSVKGRFTISRDNSKNTLYLQMNSLRAEDTAVYYCARGSTTFDYWGQGTLVTVSS VL: DIQMTQSPGTLSLSPGERATLSCRASQSVRSNYLAWYQQKPGQAPRLLIYGASSRATGIPDRFSGSGSGTDFTLTISRLEPEDFAVYYCQQRSNWPITFGQGTRLEIK | – | – | – | binds | –
Fab antibody Ab4 (Fab, V domains shown, Fab from a phage library) VH: EVQLLESGGGLVQPGGSLRLSCAASGFTFSWYWMYWVRQAPGKGLEWVSGIYPSGGFTSYADSVKGRFTISRDNSKNTLYLQMNSLRAEDTAVYYCARSYYYGSGSYYNSASFDYWGQGTLVTVSS VL: DIQMTQSPSSLSASVGDRVAITCRASQSIDTYLNWYQQKPGKAPKLLIYAASKLEDGVPSRFSGSGTGTDFTLTIRSLQPEDFASYFCQQSYSSPGITFGPGTKVEIK | no binding | no binding | binds | – | –
Fab antibody Ab14 (Fab, V domains shown, Fab from a phage library) VH: EVQLLESGGGLVQPGGSLRLSCAASGFTFSRYAMWWVRQAPGKGLEWVSYIYSSGGQTGYADSVKGRFTISRDNSKNTLYLQMNSLRAEDTAVYYCARGGVTFDLWGRGTLVTVSS VL: DIQMTQSPATLSVSPGERATLSCRASQGVSTYLAWYQQKPGQAPRLLIYGASTRATGIPARFSGSGSGTDFTLTINSLELEDFAVYYCQQRRSWPPTFGQGTKVEIK | no binding | no binding | binds | – | –
Fab antibody Ab15 (Fab, V domains shown, Fab from a phage library) VH: EVQLLESGGGLVQPGGSLRLSCAASGFTFSNYTMMWVRQAPGKGLEWVSGIRPSGGGTMYADSVKGRFTISRDNSKNTLYLQMNSLRAEDTAVYYCASVVNHKFDNWGQGTLVTVSS VL: not shown | no binding | no binding | binds | – | –
Fab antibody Ab3 (Fab, V domains shown, Fab from a phage library) VH: EVQLLESGGGLVQPGGSLRLSCAASGFTFSPYNMMWVRQAPGKGLEWVSRISPSGGDTHYADSVKGRFTISRDNSKNTLYLQMNSLRAEDTAVYYCARGSRSSWSTPYYWGQGILVTVSS VL: QSALTQPPSASGTPGQRVTISCSGSSSNIGNNYVYWYQQLPGTAPKLLIYRSNQRPSGVPDRFSGSKSGASASLAISGLRSEDEADYYCAAWDDSLIGPVFGGGTKLTVL | – | – | – | binds | –
Fab antibody Ab18 (Fab, V domains shown, Fab from a phage library) VH: EVQLLESGGGLVQPGGSLRLSCAASGFTFSWYAMWWVRQAPGKGLEWVSYISSSGGATRYADSVKGRFTISRDNSKNTLYLQMNSLRAEDTAVYYCATVLQYGAFDIWGQGTMVTVSS VL: QSALTQPPSTSGTPGQRVTISCSGSSSNIGSNYVYWYQQLPGTAPKVLIYRNNKRPSGVPDRFSGSKSGTSASLAISGLRSEDEADYYCAAWDDSLNGVIFGGGTRLTVL | no binding | no binding | binds | – | –
Fab antibody Ab11 (Fab, V domains shown, Fab from a phage library) VH: EVQLLESGGGLVQPGGSLRLSCAASGFTFSNYRMMWVRQAPGKGLEWVSGIYPSGGGTFYADSVKGRFTISRDNSKNTLYLQMNSLRAEDTAVYYCARKKMATFAAFDIWGQGTMVTVSS VL: not shown | – | – | – | – | EC50 [4]: ≤ 300 nM
Fab antibody Ab17 (Fab, V domains shown, Fab from a phage library) VH: EVQLLESGGGLVQPGGSLRLSCAASGFTFSNYTMIWVRQAPGKGLEWVSRIWPSGGGTDYADSVKGRFTISRDNSKNTLYLQMNSLRAEDTATYYCARRVGASRYFDLWGRGTLVTVSS VL: DIQMTQSPSSLSASVGDRVTVTCRASQNIDNYLNWYQQRPGKAPELLIYAASSLQSGVPSRFSGSGSGTDFTLTISSLQPEDFATYYCQQSYSNSRTFGQGTKVEIK | – | – | – | binds | –
full-length human IgG1 antibody Ab1 (antibody, V domains shown, also called human monoclonal Ab1) VH: EVQLLESGGGLVQPGGSLRLSCAASGFTFSNYLMSWVRQAPGKGLEWVSSIVPSGGFTHYADSVKGRFTISRDNSKNTLYLQMNSLRAEDTAVYYCARLQTGSWRVHAFDIWGQGTMVTVSS VL: DIQMTQSPTSLSAFVGDRVTITCQASQDIGNYLNWYQQKSGEPPKLLVYDASFLKKGVPSRFSGSGSGTQYFLTIYSLQPEDFATYFCQHSDNLSVTFGGGTKVEVKR | – | – | – | – | EC50 [7]: 0.171 nM; 50% inhibition concentration (IC50) of tyrosine phosphorylation of the cytoplasmic domain of KIT (cell-based phospho-KIT assay) [8]: 2.2 nM
full-length human IgG1 antibody Ab21 (antibody, V domains shown, Derived from Ab1 by changing the N in VL CDR3 to S to remove a glycosylation site; also called human monoclonal Ab21) VH: EVQLLESGGGLVQPGGSLRLSCAASGFTFSNYLMSWVRQAPGKGLEWVSSIVPSGGFTHYADSVKGRFTISRDNSKNTLYLQMNSLRAEDTAVYYCARLQTGSWRVHAFDIWGQGTMVTVSS VL: DIQMTQSPTSLSAFVGDRVTITCQASQDIGNYLNWYQQKSGEPPKLLVYDASFLKKGVPSRFSGSGSGTQYFLTIYSLQPEDFATYFCQHSDSLSVTFGGGTKVEVKR | – | – | – | – | EC50 [7]: 0.156 nM; 50% inhibition concentration (IC50) of tyrosine phosphorylation of the cytoplasmic domain of KIT (cell-based phospho-KIT assay) [8]: 1.3 nM
